Data: patent US20070041901, “Stabilized aptamers to PSMA and their use as prostate cancer therapeutics” (published 2007)

Experiments:
[1] = biological target: T1, PSMA (prostate-specific membrane antigen) extracellular domain (Homo sapiens, UniProt Q04609 SEQ:23-728); experiment: filter; no binding in dot blot
Procedure: (§1) Dot Blot Binding Analysis. Dot blot binding assays were performed throughout the selections to monitor the protein binding affinity of the pools. For initial pool screening, trace ³²P-labeled pool RNA was combined with PSMA and incubated at room temperature for 30 min in 1×SHMCK buffer pH 7.4 (20 mM Hepes pH 7.4, 120 mM NaCl, 5 mM KCl, 1 mM MgCl₂, […]) plus 0.1 mg/mL tRNA in a final volume of 30 μl. The mixture was applied to a dot blot apparatus (Schleicher and Schuell Minifold-1 Dot Blot, Acrylic, Keene, N.H.), assembled (from top to bottom) with nitrocellulose, nylon, and gel blot membranes. RNA that is bound to protein is captured on the nitrocellulose filter; whereas the non-protein bound RNA is captured on the nylon filter. […] The Round 9 pool was cloned and screened in a single point dot blot assay using 100 nM PSMA (0 nM PSMA was used as a negative control). Clone transcripts were 5′end labeled with ³²-P ATP. Likely binders were than assayed for KD determination by the blot assay conditions described directly above, but without tRNA, using an 8 point PSMA titration with a constant RNA concentration. […] Both of the clones screened were unique sequences in the Round 9 selection pool.
(§2) In order to identify the core structural elements required for ARC955 binding to PSMA, the 3′-boundaries of the clone was determined through alkaline hydrolysis.

[2] = biological target: T1, PSMA (prostate-specific membrane …); experiment: FP filter; dot blot, nitrocellulose; max bound 33%
Procedure: as §1, §2

[3] = biological target: T1, PSMA (prostate-specific membrane …); experiment: filter; dot blot, 1x SHMCK pH 7.4 (1 mM Mg, Ca), room temp, no tRNA; conditions: label: 32P 5'-end
[4] = biological target: T1, PSMA (prostate-specific membrane …); experiment: filter; dot blot; max bound 52%
Procedure: as §1, §2

[5] = biological target: T1, PSMA (prostate-specific membrane …); experiment: filter; dot blot without tRNA; conditions: hairpin with conserved 16-nt loop, A-rich asymmetric bulge
[6] = biological target: T1, PSMA (prostate-specific membrane …); experiment: inhibition; NAALADase inhibition, 40 mM Tris pH 7.4, 0.1 mM ZnSO4, 37 C; conditions: hairpin with conserved 16-nt loop, A-rich asymmetric bulge
[7] = biological target: T1, PSMA (prostate-specific membrane …); experiment: filter; dot blot; max bound 22%
Procedure: as §1, §2

T1 sequence (Q04609 45-750): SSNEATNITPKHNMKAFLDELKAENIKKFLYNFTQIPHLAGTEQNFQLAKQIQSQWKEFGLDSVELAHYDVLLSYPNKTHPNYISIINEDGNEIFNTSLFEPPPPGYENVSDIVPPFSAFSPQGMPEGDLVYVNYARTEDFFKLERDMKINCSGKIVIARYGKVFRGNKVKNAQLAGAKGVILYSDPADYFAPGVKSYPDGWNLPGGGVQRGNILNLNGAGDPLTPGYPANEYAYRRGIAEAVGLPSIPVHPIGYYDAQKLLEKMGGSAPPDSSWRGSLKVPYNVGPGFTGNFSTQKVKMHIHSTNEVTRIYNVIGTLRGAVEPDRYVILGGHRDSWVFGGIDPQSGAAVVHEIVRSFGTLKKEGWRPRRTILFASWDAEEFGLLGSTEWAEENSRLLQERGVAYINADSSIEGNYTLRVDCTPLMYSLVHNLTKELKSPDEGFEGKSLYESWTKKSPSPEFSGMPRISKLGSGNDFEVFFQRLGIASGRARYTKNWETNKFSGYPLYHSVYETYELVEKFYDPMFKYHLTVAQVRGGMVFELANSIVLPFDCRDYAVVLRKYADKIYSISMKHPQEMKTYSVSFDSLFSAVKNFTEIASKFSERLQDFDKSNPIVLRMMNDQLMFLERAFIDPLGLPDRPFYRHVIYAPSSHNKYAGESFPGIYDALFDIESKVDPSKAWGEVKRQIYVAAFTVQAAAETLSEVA

B1: ARC725 (ssRNA)
RNA: CUACUACACAUGGGUCGGGUGAGUGGCAAAGGAAUAGUAG
modifications: 2'-OMe A, C, U; 2'-OH G (rGmH)
[1]
  binding result: no binding

B2: ARC1088 (ssRNA)
RNA: GGGUGGCUGGGAGGGGAAGAGGG
modifications: 2'-OMe A, C, U; 2'-OH G (rGmH)
[2]
  Kd: 2.1 nM

B3: ARC956 (G8) (ssRNA)
RNA: GGGGAGAGGAGAGAACGUUCUACACAUGGGUCGGGUGAGUGGCAAAGGAAUAGGUCGAUCGAUCGAUCAUCGAUG
modifications: 2'-OMe A, C, U; 2'-OH G (rGmH)
[3]
  Kd: 16 nM

B4: ARC955 (G2) (ssRNA)
RNA: GGGAGAGGAGAGAACGUUCUACUAUGGGUGGCUGGGAGGGGAAGAGGGAGUAGGUCGAUCGAUCGAUCAUCGAUG
modifications: 2'-OMe A, C, U; 2'-OH G (rGmH)
[3]
  Kd: 9 nM

B5: ARC1091 (ssRNA)
RNA: AGAGGAGAGAACGUUCUACUAUGGGUGGCUGGGAGGGG
modifications: 2'-OMe A, C, U; 2'-OH G (rGmH)
[4]
  Kd: 3.1 nM

B6: ARC591 (ssRNA)
RNA: GGAGGACCGAAAAAGACCUGACUUCUAUACUAAGUCUACGUUCCUCCA
modifications: 2'-F C and U; 2'-OH A and G
[5]
  Kd: 3.4 nM
[6]
  IC50: 6.7 nM

B7: ARC1089 (ssRNA)
RNA: CUACUGGGUGGCUGGGAGGGGAAGAGGGAGUAG
modifications: 2'-OMe A, C, U; 2'-OH G (rGmH)
[7]
  Kd: 9.3 nM
